Experimental data reported in patent publication US20180355061A1 (Janssen / Centocor, published 2018).

Experiments:
[1] = target: T1, cyno PD-1 (soluble analyte in SPR) (cyno); assay: SPR (ProteOn XPR36), mAb captured on anti-human IgG Fc, cyno PD-1 as analyte, 25 C
T1 construct: also called cynomolgus PD-1
Method: (§1) Affinity measurements were performed using a ProteOn XPR36 system (BioRad). […] Approximately 5000 RU (response units) of mAbs were immobilized. The kinetic experiments were performed at 25° C. in running buffer (DPBS+0.01% P20+100 μg/mL BSA). To perform kinetic experiments, 200 RU of mAbs were captured followed by injections of analytes (human and cyno PD-1) at concentrations ranging from 1.563 nM to 400 nM (in a […] serial dilution). The association phase was monitored for 3 minutes at 50 μL/min, then followed by 10 or 15 minutes of buffer flow (dissociation phase). The chip surface was regenerated with two 18 second pulses of 100 mM H₃PO₄ (Sigma, Cat #7961) at 100 μL/min.
(§2) The collected data were processed using ProteOn Manager software. First, the data was corrected for background using inter-spots. Then, double reference subtraction of the data was performed by using the buffer injection for analyte injections. The kinetic analysis of the data was performed using a Langmuir 1:1 binding model. The result for each mAb was reported in the format of ka (On-rate), kd (Off-rate) and KD (equilibrium dissociation constant).
(§3) Affinity of the antibodies to human and cyno PD-1 was measured using SPR as described in Example 1.

[2] = target: T2, human PD-1 (soluble analyte in SPR) (human, UniProt Q15116 25-170, limits assumed); assay: SPR (ProteOn XPR36), mAb captured on anti-human IgG Fc, human PD-1 as analyte, 25 C
T2 construct: also called CD279; PDCD1
Method: as §1, §2, §3

[3] = target: T2, human PD-1 (soluble analyte in SPR); assay: SPR (ProteOn XPR36), mAb captured on anti-human IgG Fc, PD-1 as analyte, 25 C
Method: as §1, §2
Affinity of the parental and humanized antibodies to PD-1 was measured using SPR as described in Example 1.

T2 sequence (Q15116 25-170 limits assumed): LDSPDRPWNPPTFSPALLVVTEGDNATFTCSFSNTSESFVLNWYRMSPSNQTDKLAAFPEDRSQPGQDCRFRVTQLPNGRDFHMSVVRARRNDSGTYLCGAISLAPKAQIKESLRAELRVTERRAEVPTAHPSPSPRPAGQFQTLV

Binder	Kd [1]	koff [1]	kon [1]	Kd [2]	koff [2]	kon [2]	Kd [3]	koff [3]	kon [3]
PD1B1093 (antibody, human IgG1, kappa, V domains shown, also called VH PD1H585; VL PD1L652) VH: QVQLVQSGSELKKPGASVKVSCKASGYTFTDYSMHWVRQAPGQGLEWMGWINIETGYPTYAQGFTGRFVFSLDTSVSTAYLQISSLKAEDTAVYFCARDYYGTYFYAMDYWGQGTLVTVSS VL: EIVLTQSPATLSLSPGERATLSCTASSSVPSSYLHWYQQKPGLAPRLLIYSTSNLASGIPDRFSGSGSGTDYTLTISRLEPEDFAVYYCHQYHRSPLTFGQGTKLEIKR	2.18 nM	0.000368 s⁻¹	169000 M⁻¹ s⁻¹	0.349 nM	4.36e-05 s⁻¹	125000 M⁻¹ s⁻¹			
PD1B1092 (antibody, human IgG1, kappa, V domains shown, also called VH PD1H587; VL PD1L651) VH: QVQLVQSGSELKKPGASVKVSCKASGYTFTDYSMHWVRQAPGQGLEWMGWINIETGWPTYAQGFTGRFVFSLDTSVSTAYLQISSLKAEDTAVYFCARDYYGTYFYAMDYWGQGTLVTVSS VL: EIVLTQSPATLSLSPGERATLSCTASSSFSSSYLHWYQQKPGLAPRLLIYSTSNLASGIPDRFSGSGSGTDYTLTISRLEPEDFAVYYCHQYHRSPLTFGQGTKLEIKR	3.18 nM	0.000411 s⁻¹	129000 M⁻¹ s⁻¹	0.214 nM	3e-05 s⁻¹	140000 M⁻¹ s⁻¹			
PD1B1087 (antibody, human IgG1, kappa, V domains shown, also called VH PD1H587; VL PD1L469) VH: QVQLVQSGSELKKPGASVKVSCKASGYTFTDYSMHWVRQAPGQGLEWMGWINIETGWPTYAQGFTGRFVFSLDTSVSTAYLQISSLKAEDTAVYFCARDYYGTYFYAMDYWGQGTLVTVSS VL: EIVLTQSPATLSLSPGERATLSCTASSSVSSSYLHWYQQKPGLAPRLLIYSTSNLASGIPDRFSGSGSGTDYTLTISRLEPEDFAVYYCHQYHRSPLTFGQGTKLEIKR	11.6 nM	0.00247 s⁻¹	212000 M⁻¹ s⁻¹	1.44 nM	0.000239 s⁻¹	166000 M⁻¹ s⁻¹			
PD1B1089 (antibody, human IgG1, kappa, V domains shown, also called VH PD1H405; VL PD1L652) VH: QVQLVQSGSELKKPGASVKVSCKASGYTFTDYSMHWVRQAPGQGLEWMGWINIETGEPTYAQGFTGRFVFSLDTSVSTAYLQISSLKAEDTAVYFCARDYYGTYFYAMDYWGQGTLVTVSS VL: EIVLTQSPATLSLSPGERATLSCTASSSVPSSYLHWYQQKPGLAPRLLIYSTSNLASGIPDRFSGSGSGTDYTLTISRLEPEDFAVYYCHQYHRSPLTFGQGTKLEIKR	90 nM	0.00839 s⁻¹	93200 M⁻¹ s⁻¹	8.09 nM	0.000474 s⁻¹	58600 M⁻¹ s⁻¹			
PD1B1091 (antibody, human IgG1, kappa, V domains shown, also called VH PD1H586; VL PD1L651) VH: QVQLVQSGSELKKPGASVKVSCKASGYTFTDYSMHWVRQAPGQGLEWMGWINIETGHPTYAQGFTGRFVFSLDTSVSTAYLQISSLKAEDTAVYFCARDYYGTYFYAMDYWGQGTLVTVSS VL: EIVLTQSPATLSLSPGERATLSCTASSSFSSSYLHWYQQKPGLAPRLLIYSTSNLASGIPDRFSGSGSGTDYTLTISRLEPEDFAVYYCHQYHRSPLTFGQGTKLEIKR	9.32 nM	0.000924 s⁻¹	99100 M⁻¹ s⁻¹	0.83 nM	6.44e-05 s⁻¹	77700 M⁻¹ s⁻¹			
PD1B1095 (antibody, human IgG1, kappa, V domains shown, also called VH PD1H587; VL PD1L652) VH: QVQLVQSGSELKKPGASVKVSCKASGYTFTDYSMHWVRQAPGQGLEWMGWINIETGWPTYAQGFTGRFVFSLDTSVSTAYLQISSLKAEDTAVYFCARDYYGTYFYAMDYWGQGTLVTVSS VL: EIVLTQSPATLSLSPGERATLSCTASSSVPSSYLHWYQQKPGLAPRLLIYSTSNLASGIPDRFSGSGSGTDYTLTISRLEPEDFAVYYCHQYHRSPLTFGQGTKLEIKR	4.23 nM	0.000781 s⁻¹	185000 M⁻¹ s⁻¹	0.471 nM	7.12e-05 s⁻¹	151000 M⁻¹ s⁻¹			
PD1B1088 (antibody, human IgG1, kappa, V domains shown, also called VH PD1H405; VL PD1L651) VH: QVQLVQSGSELKKPGASVKVSCKASGYTFTDYSMHWVRQAPGQGLEWMGWINIETGEPTYAQGFTGRFVFSLDTSVSTAYLQISSLKAEDTAVYFCARDYYGTYFYAMDYWGQGTLVTVSS VL: EIVLTQSPATLSLSPGERATLSCTASSSFSSSYLHWYQQKPGLAPRLLIYSTSNLASGIPDRFSGSGSGTDYTLTISRLEPEDFAVYYCHQYHRSPLTFGQGTKLEIKR	72.4 nM	0.00479 s⁻¹	66100 M⁻¹ s⁻¹	10.9 nM	0.000341 s⁻¹	31300 M⁻¹ s⁻¹			
PD1B506 (antibody, human IgG1, kappa, V domains shown, Parental mouse antibody cloned as chimeric human IgG1; Bin 5; also called VH PD1H90; VL PD1L28) VH: QVQLQQPGAELVKPGASVKLSCKASGYTFTTYWMHWVKQRPGQGLEWIGEINPNNGGINYNEKFKKKATLTVDKSSSTAYMQLSSLTSEDSAVYYCTIDYYDYGGYWGQGTTLTVSS VL: DIVMTQSQKFMSTSVRDRVSVTCKASQNVGTNVAWYQQKPGQSPKALIYSASYRYSGVPDRFTGSGSGTDFTLTITNVQSEDLAEYFCQQYNIYPYTFGSGTKLEMKR							52.4 nM	0.0102 s⁻¹	195000 M⁻¹ s⁻¹
